# Test results as given in PMC3245779.
# Target: BSG-S variant E92K (Ok(a-) variant) (human)
# Assay: SPR
substance,measurement,value
"PfRh5 (purified, SPR analyte) (from UniProt Q8IFM5 25-526) (ligand)",fold lower affinity than the BSG reference sequence (equilibrium),2 fold
